Experimental data reported in US20230002494A1 (SANYOU BIOPHARMACEUTICALS, published 2023).
Read-outs that look alike come from different tables or passages of the source.

Key:
[1] = target: T1, rhesus monkey PD-L1 (full-length, on CHO-s cells) (rhesus monkey, UniProt F6VEW6 19-290); assay: FACS, monkey PD-L1-CHO cells
T1 construct: whole, on cells; also called monkey PD-L1-CHO
Description: (§1) In order to evaluate 4 derisked VHH-Fc candidate antibodies, an FACS method is used to detect the binding activities thereof to cell expressed human PD-L1 and monkey PD-L1 proteins.

[2] = target: T2, human PD-L1 (full-length, on cells) (human, UniProt Q9NZQ7 19-290); assay: FACS on human PD-L1-CHO cells, PE anti-human IgG Fc
T2 construct: whole, on cells; Expressed on CHO-s cells; also called human PD-L1-CHO; PD-L1-CHO
Description: 1) collecting the cultured human PD-L1-CHO cells, centrifuging the collected cells at 300 g to remove the supernatant, resuspending the cells in a formulated FACS buffer and counting the cells, and adjusting the density of the cell suspension to 2×10⁶ cells/mL;

[3] = target: T2, human PD-L1 (full-length, on cells); assay: FACS competition, human PD-L1-CHO cells, competitor biotin-labeled PD-1-Fc 1 µg/mL
[4] = target: T2, human PD-L1 (full-length, on cells); assay: FACS, human PD-L1-CHO cells
Description: as §1

[5] = target: T2, human PD-L1 (full-length, on cells); assay: FACS blocking on huPDL1-CHO cells; blocked ligand PD-1-Biotin 1 µg/mL; MFI = bound PD-1
[6] = target: T2, human PD-L1 (full-length, on cells); assay: FACS on huPD-L1-CHOK cells
[7] = target: T3, mouse PD-L1 (full-length, on CHO-s cells) (mouse, UniProt Q9EP73 19-290); assay: FACS on mouse PD-L1-CHOK cells
T3 construct: whole, on cells; also called mouse PD-L1-CHO

[8] = target: T2, human PD-L1 (full-length, on cells); assay: FACS on PD-L1-CHO cells, anti-Llama IgG FITC
[9] = target: T2, human PD-L1 (full-length, on cells); assay: FACS competition, human PD-L1-CHO cells, competitor biotin-labeled PD-1-Fc 1 µg/mL; remark: listed apart in the source
[10] = target: T3, mouse PD-L1 (full-length, on CHO-s …); assay: FACS, mouse PD-L1-CHO cells
[11] = target: T4, B7-H2 protein, Sino Biological 11559-H08H (UniProt O75144 19-258); assay: ELISA, plate coated with 2 µg/mL protein, anti-human IgG Fc-HRP, OD450; design: concentration or dose not given beside the values
T4 construct: Bought protein
T4 sequence (looked up): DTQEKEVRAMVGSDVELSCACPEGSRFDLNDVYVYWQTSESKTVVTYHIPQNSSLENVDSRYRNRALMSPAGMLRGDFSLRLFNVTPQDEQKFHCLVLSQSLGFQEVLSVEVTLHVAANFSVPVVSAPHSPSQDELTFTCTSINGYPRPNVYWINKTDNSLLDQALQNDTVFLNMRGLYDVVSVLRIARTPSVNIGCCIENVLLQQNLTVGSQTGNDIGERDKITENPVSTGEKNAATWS
Experimental: (§2) The specific method is as follows:
(§3) one day prior to the experiment, 30 μL of protein diluents such as B7-H1 (i.e., PDL1), B7-H2, B7-H3, B7-H4 and B7-DC (the above-mentioned proteins are all purchased from Sino Biological Co., Ltd., with Cat. Nos. 10084-HNAH, 11559-H08H, 11188-H08H, 10738-H08H and 10292-H08H-B, respectively) are added to an ELISA plate at a final concentration of 2 μg/mL, and incubated at 4° C. overnight; the next day, the ELISA plate is rinsed 3 times with PBST, then blocked with 150 μL of 5% PBSM, and incubated at room temperature for 2 hours; the ELISA plate is rinsed 3 times with PBST again, and then 30 μL of candidate antibody and control antibody diluents are added thereto, and the plate is incubated at room temperature for 1 hour; the plate is rinsed 3 times with PBST, and an anti-human IgG Fc-HRP second antibody diluted at 1:7000 is added thereto (30 μL/well), and the plate is incubated at room temperature for 30 minutes; the plate is rinsed 6 times with PBST, then TMB is added thereto for color development, and finally, 2M HCl is added to stop the reaction.

[12] = target: T5, B7-H4 protein, Sino Biological 10738-H08H (UniProt Q7Z7D3 25-258); assay: as above; design: concentration or dose not given beside the values
T5 construct: Bought protein
T5 sequence (looked up): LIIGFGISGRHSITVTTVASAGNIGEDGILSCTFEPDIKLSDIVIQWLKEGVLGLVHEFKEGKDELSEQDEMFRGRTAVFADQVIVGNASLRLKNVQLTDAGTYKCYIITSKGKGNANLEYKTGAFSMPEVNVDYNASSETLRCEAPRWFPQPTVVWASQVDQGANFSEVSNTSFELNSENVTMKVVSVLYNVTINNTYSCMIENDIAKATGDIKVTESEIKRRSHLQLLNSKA
Experimental: as §2, §3

[13] = target: T6, B7-DC protein, Sino Biological 10292-H08H-B (UniProt Q9BQ51 20-219); assay: as above; design: concentration or dose not given beside the values
T6 construct: Bought protein
T6 sequence (looked up): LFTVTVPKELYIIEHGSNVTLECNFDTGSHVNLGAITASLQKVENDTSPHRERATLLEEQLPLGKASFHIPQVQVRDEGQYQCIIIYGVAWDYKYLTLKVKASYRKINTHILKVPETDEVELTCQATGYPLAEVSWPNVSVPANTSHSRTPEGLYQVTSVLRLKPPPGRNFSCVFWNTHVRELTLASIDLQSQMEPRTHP
Experimental: as §2, §3

[14] = target: T7, B7-H3 protein, Sino Biological 11188-H08H (UniProt Q5ZPR3 29-461); assay: as above; design: concentration or dose not given beside the values
T7 construct: Bought protein
T7 sequence (looked up): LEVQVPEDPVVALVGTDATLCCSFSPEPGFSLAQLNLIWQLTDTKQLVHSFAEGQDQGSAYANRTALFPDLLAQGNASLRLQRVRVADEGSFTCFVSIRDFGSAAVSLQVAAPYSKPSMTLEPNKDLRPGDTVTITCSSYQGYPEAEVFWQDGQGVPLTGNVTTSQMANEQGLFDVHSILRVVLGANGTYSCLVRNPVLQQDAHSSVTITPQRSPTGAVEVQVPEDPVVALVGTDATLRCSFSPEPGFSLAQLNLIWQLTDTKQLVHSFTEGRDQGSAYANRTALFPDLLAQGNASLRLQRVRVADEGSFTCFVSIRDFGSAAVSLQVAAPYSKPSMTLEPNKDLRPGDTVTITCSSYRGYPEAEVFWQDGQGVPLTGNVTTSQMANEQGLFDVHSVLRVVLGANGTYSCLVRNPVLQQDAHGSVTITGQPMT
Experimental: as §2, §3

[15] = target: T2, human PD-L1 (full-length, on cells); assay: FACS, human PD-L1-CHO cells; remark: listed apart in the source
[16] = target: T2, human PD-L1 (full-length, on cells); assay: FACS competition, human PD-L1-CHO cells, competitor biotin-labeled CD80 1 µg/mL
[17] = target: T1, rhesus monkey PD-L1 (full-length, on …); assay: FACS, monkey PD-L1-CHO cells; remark: listed apart in the source
Description: In order to evaluate the cross-reactivity of the VHH-Fc candidate antibodies to monkey PD-L1 and mouse PD-L1, an FACS method is used to detect the binding activity thereof to the mouse and rhesus monkey PD-L1 protein on cells.

T2 sequence (Q9NZQ7 19-290): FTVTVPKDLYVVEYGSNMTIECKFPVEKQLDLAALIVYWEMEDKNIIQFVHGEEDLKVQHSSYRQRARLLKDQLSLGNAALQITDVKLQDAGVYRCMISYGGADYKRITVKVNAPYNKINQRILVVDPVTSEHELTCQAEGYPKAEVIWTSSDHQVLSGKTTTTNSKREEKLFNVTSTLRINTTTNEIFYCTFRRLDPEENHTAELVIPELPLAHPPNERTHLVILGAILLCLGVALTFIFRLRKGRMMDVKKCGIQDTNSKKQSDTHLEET
T3 sequence (Q9EP73 19-290): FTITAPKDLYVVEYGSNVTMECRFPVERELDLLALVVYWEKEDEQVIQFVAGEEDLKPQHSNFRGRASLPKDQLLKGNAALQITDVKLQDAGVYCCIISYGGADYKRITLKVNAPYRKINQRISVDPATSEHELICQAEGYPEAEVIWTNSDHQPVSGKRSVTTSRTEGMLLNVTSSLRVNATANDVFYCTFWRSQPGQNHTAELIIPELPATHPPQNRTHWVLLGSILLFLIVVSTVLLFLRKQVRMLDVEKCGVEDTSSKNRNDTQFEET

B1: NB22D-21-huVH2 (Fc fusion, not shown: a dimerising Fc or GST)
chain: EVQLVESGGGLVQPGGSLRLSCAASRTDSNINGMHWYRQAPGKGREWVGTIFIDGNTIVTDSVKGRFTISRDNAKNTLYLQMNTLRAEDTAVYYCAADVSGYGRAWGQGTTVTVSS
notes: Humanized form of NB22D-21; also called humanized antibody NB22D-21-huVH2; D21-Vh2
B1 was tested, and the EC50 [1] was 1.82 µg/mL, the “EC50 (read off the curve)” value [2] was about 0.1 µg/mL and the IC50 [3] was 1 µg/mL. The EC50 [4] was 0.72 µg/mL.

B2: NB22D-21-4 VHH-Fc chimeric antibody protein (Fc fusion)
chain: EVQLVESGGGLVQPGGSLRLSCAASRTDRNINTMHWYRQAPGKGREWVGTIFIDLNTIVTDSVKGRFTISRDNAKNTLYLQMNTLRAEDTAVYYCAADVSGYGRAWGQGTTVTVSS
notes: not shown: human IgG1 Fc fragment, its N-terminus linked to the C-terminus of the VHH
B2 was tested, and the EC50 [1] was 0.3 µg/mL, the “IC50 (read off the curve)” value [5] was about 0.2 µg/mL and the IC50 [3] was 0.3 µg/mL. The “EC50 (read off the curve)” value [6] was about 0.2 µg/mL, the EC50 [4] was 0.21 µg/mL and the binding result [7] was “no binding (tested: 20 µg/mL)”.

B3: SY01-208 (VHH lysate) (VHH)
VHH: EVQLVESGGGLVQPGGSLRLSCAHSRTDSNIFGMHWYRQAPGKGREWVGTIFIDANTIVTDSVKGRFTISRDNAKNTLYLQMNTLRAEDTAVYYCAADVSGYGRAWGQGTTVTVSS
notes: Tested as VHH lysate of a monoclone from the phage display vector
B3: binds [8].

B4: NB22D-21-24 VHH-Fc chimeric antibody protein (Fc fusion)
chain: EVQLVESGGGLVQPGGSLRLSCAASRTFSNIFGMHWYRQAPGKGREWVGTIFITGNTIVTDSVKGRFTISRDNAKNTLYLQMNTLRAEDTAVYYCAADVSGYGRAWGQGTTVTVSS
notes: as for B2
B4 gave an EC50 [1] of 0.39 µg/mL, an IC50 [3] of 0.2 µg/mL and an EC50 [4] of 0.14 µg/mL.

B5: SY01-NB-027-M (VHH lysate) (VHH)
VHH: EVQLVESGGGLVQPGGSLRLSCAHSRTDSNINSMHWYRQAPGKGREWVGTWFIDGNTIVTDSVKGRFTISRDNAKNTLYLQMNTLRAEDTAVYYCAADEWMYGRAWGQGTTVTVSS
notes: as for B3
B5: binds [8].

B6: NB22D-21 chimeric VHH-Fc antibody (Fc fusion)
chain: EVQVQESGGGLVQAGGSLRLSCAHSRTDSNINGMHWYRQAPGKQRDWVGTIFIDGNTIVTDSVKGRFTISRDNAKNTLYLQMNTLKPEDTAVYFCAADVSGYGRAWGQGTQVTVSS
notes: also called parental antibody NB22D-21; parent molecule; not shown: human IgG1 Fc fragment, its N-terminus linked to the C-terminus of the VHH
For B6, the IC50 [9] was 0.41 µg/mL, the binding result [10] was “binds” and the binding result [11] was “no binding (tested: 10.00 (no unit on the sheet))”. B6: no binding (tested: 10.00 (no unit on the sheet)) [12]; no binding (tested: 10.00 (no unit on the sheet)) [13]; no binding (tested: 10.00 (no unit on the sheet)) [14]. The “EC50 (read off the curve)” value [2] was about 0.1 µg/mL, the EC50 [15] was 0.39 µg/mL and the IC50 [16] was 0.708 µg/mL. It also gave an EC50 [17] of 0.25 µg/mL.

B7: control antibody KN035 (antibody, V domains shown)
VH: QVQLVESGGGLVQPGGSLRLSCAASGFTFSRRCKAWFRQAPGKERERVAKILTTSGSTYLADSVKGRFTISRDNSKNTVYLQMNSLRAEDTAVYYCAADSFEDPTCTLVTSSGAFQYWGQGTLVTVSS
notes: also called KN035 (control); positive control KN035
For B7, the IC50 [9] was 0.39 µg/mL, the “IC50 (read off the curve)” value [5] was about 0.2 µg/mL and the “EC50 (read off the curve)” value [2] was about 0.1 µg/mL. For the same binder, the EC50 [15] was 0.39 µg/mL, the IC50 [16] was 0.631 µg/mL and the EC50 [17] was 0.21 µg/mL. For the same binder, the “EC50 (read off the curve)” value [6] was about 0.2 µg/mL.
